Laboratory results as given in patent US20210324359A1, “USE OF GRAM-NEGATIVE LYSIN-ANTIMICROBIAL PEPTIDE (AMP) POLYPEPTIDE CONSTRUCTS IN TREATING ENDOCARDITIS” (priority 2020, published 2021).
Like-named read-outs stand apart in the source and are kept apart here.

Columns and labels:
Staphylococcus aureus = experiment: Daptomycin MIC with […], positive control (Table 10); type: cell-based; details: for fold increase in MIC with SURVANTA: Staphylococcus aureus
Method: As a positive control, the impact of […] ® on daptomycin (DAP) activity against Staphylococcus aureus was also tested.

[1] = system: Pseudomonas aeruginosa strain CFS-1292 (meropenem resistant); details: for Fold Increase (MIC) in presence of cations: CFS-1292; for MIC in 25% CAA: strain CFS-1292, no added cations
Method: The activity of selected GN lysins and constructs in the presence of divalent cations was evaluated, and the impact of divalent cations at physiological concentrations was examined in the MIC assay format.

[2] = system: P. aeruginosa isolate CFS-1292; experiment: MIC in CAA supplemented with a range of […] concentrations (Table 10); type: cell-based, Pseudomonas aeruginosa
P. aeruginosa = experiment: MIC, modified CLSI broth microdilution in CAA medium without or with […] human serum (Table 4); type: cell-based, Pseudomonas aeruginosa; on CAA/HuS MIC: CAA supplemented with 2.5% human serum
From the text: 2015. […] Clinical and Laboratory Standards Institute, Wayne, Pa.

[3] = system: biofilms formed by P. aeruginosa strain ATCC 17646; details: strain ATCC 17646 biofilm
Method: Biofilms are then washed and treated with e.g., a 2-fold dilution series of the lysin in TSBg at e.g., 37° C. for 24 hours. After treatment, wells are washed, air-dried at e.g., 37° C. and stained with e.g., 0.05% crystal violet for 10 minutes.

[4] = system: carbepenam-resistant clinical isolate WC-453; experiment: MIC in CAA without or with 25% human serum (Table 5); type: cell-based, Pseudomonas aeruginosa
Method: MIC values were determined using a modification of the standard broth microdilution reference method defined by the Clinical and Laboratory Standards Institute (CLSI), CLSI. […] Methods for Dilution Antimicrobial Susceptibility Tests for Bacteria That Grow Aerobically; Approved Standard-10th Edition. Clinical and Laboratory Standards Institute, Wayne, Pa.

[5] = system: P. aeruginosa strain WC-453; experiment: Time-kill assay in HEPES or CAA with 25% human serum (Tables 7, 8); type: cell-based, Pseudomonas aeruginosa
Method: Exponential phase bacteria were then pelleted and resuspended in 1/5 culture volume of 25 mM HEPES, pH 7.4 before a final adjustment to an optical density corresponding to a McFarland value of 0.5. […] All treatments were incubated at 37° C. with aeration. At time points before the addition of lysin (or buffer control) and at 1 hour and 3 hours intervals thereafter, culture samples were removed for quantitative plating on CAA agar plates.

[6] = system: carbapenem-resistant P. aeruginosa strains; experiment: Resensitization of carbapenem-resistant strains, combinations with imipenem or meropenem (Tables 18-22); type: cell-based, Pseudomonas aeruginosa
Method: Such resensitization may be determined by combining the present lysins or lysin-AMP polypeptide constructs with an antibiotic in a checkerboard assay as described herein. Antibiotic-resistant bacteria, such as carbapenem-resistant P. aeruginosa, are added to the lysin or lysin-AMP polypeptide construct combination. […] See Clinical and Laboratory Standards Institute (CLSI), CLSI. […] M100 Performance Standards for Antimicrobial Susceptibility Testing; 29th Edition. Clinical and Laboratory Standards Institute, Wayne, Pa., which is herein incorporated by reference in its entirety.
Up to seven carbapenem-resistant isolates were assessed. […] See Clinical and Laboratory Standards Institute (CLSI), CLSI. […] M100 Performance Standards for Antimicrobial Susceptibility Testing; 29th Edition. Clinical and Laboratory Standards Institute, Wayne, Pa.

[7] = 25% CAA + […] CaCl2 and […] MgCl2

daptomycin
fold increase in MIC with SURVANTA (Staphylococcus aureus; 0.09% SURVANTA): 32 fold | fold increase in MIC with SURVANTA (Staphylococcus aureus; 0.19% SURVANTA): 32 fold | fold increase in MIC with SURVANTA (Staphylococcus aureus; 1.56% SURVANTA): 128 fold | fold increase in MIC with SURVANTA (Staphylococcus aureus; 3.15% SURVANTA): 128 fold | inhibition by pulmonary surfactant (Staphylococcus aureus; SURVANTA 0.09-[…], S. aureus): inhibitory to the activity of DAP

B1: GN156: GPRRPRRPGRRAPV introduced at the N terminus of GN4 (SEQ ID NO: 126) (protein)
chain: GPRRPRRPGRRAPVRTSQRGIDLIKSFEGLRLSAYQDSVGVWTIGYGTTRGVTRYMTITVEQAERMLSNDIQRFEPELDRLAKVPLNQNQWDALMSFVYNLGAANLASSTLLKLLNKGDYQGAADQFPRWVNAGGKRLDGLVKRRAAERALFLEPLS
Fold Increase (MIC) in presence of cations ([1]; 25% CAA + […] CaCl2 (high)): 1 fold | Fold Increase (MIC) in presence of cations ([1]; 25% CAA + […] CaCl2 (low)): 2 fold | Fold Increase (MIC) in presence of cations ([1]; 25% CAA + […] CaCl2 (medium)): 2 fold | Fold Increase (MIC) in presence of cations [1, 7]: 2 fold | Fold Increase (MIC) in presence of cations ([1]; 25% CAA + […] MgCl2 (high)): 2 fold | Fold Increase (MIC) in presence of cations ([1]; 25% CAA + […] MgCl2 (low)): 2 fold | Fold Increase (MIC) in presence of cations ([1]; 25% CAA + […] MgCl2 (medium)): 2 fold | MIC in 25% CAA [1]: 2 µg/mL | fold increase in MIC with SURVANTA ([2]; 0.09% SURVANTA): 1 fold | fold increase in MIC with SURVANTA ([2]; 0.19% SURVANTA): 1 fold | fold increase in MIC with SURVANTA ([2]; 1.56% SURVANTA): 2 fold | fold increase in MIC with SURVANTA ([2]; 3.15% SURVANTA): 2 fold

B2: GN316: lysin obtained from Klebsiella phage 0507-KN2-1 (SEQ ID NO: 22) (protein)
chain: MAILKIGSKGLEVKNLQTSLNKIGFNLVADGIFGKATDNAVRAVQAGAGLVVDGIAGPKTMYAIRNAGESHQDHLTEADLIDAARELSVDLASIKAVNQVESRGTGFTKSGKIKTLFERHIMYKKLNAKFGQAKANALAQLYPTLVNAKAGGYTGGDAELERLHGAIAIDKDCAYESASYGLFQIMGFNCVICGYDNAEEMFNDFLTGERAQLMAFVKFIKADANLWKALKDKNWAEFARRYNGPAYAQNQYDTKLAAAYKSFS
modifications: (1)..(264) GN316 lysin
CAA MIC (P. aeruginosa; CAA medium, no human serum): 16000 µg/mL | CAA/HuS MIC (P. aeruginosa; CAA supplemented with […] human serum): 125 µg/mL | MBEC [3]: 1 µg/mL | MIC in 25% CAA [1]: 4 µg/mL | activity in CAA supplemented with human serum (25%) [4]: active | CAA MIC ([4]; CAA): 16 | CAA/HuS MIC ([4]; CAA supplemented with 25% human serum): <0.0625 | bactericidal activity (CFU decrease of 3-Log10, 3 hours after the addition of lysin) ([5]; 10 μg/mL, enumerated lysins in CAA/HuS, general statement for HEPES and CAA/HuS): bactericidal activity | CAA/HuS (Log10 CFU/mL), 1 hr ([5]; CAA + 25% human serum, lysin 10 μg/ml, 1 hr, WC-453): 5.1 Log10 CFU/mL | CAA/HuS (Log10 CFU/mL), 3 hr ([5]; CAA + 25% human serum, lysin 10 μg/ml, 3 hr, WC-453): <3.7 Log10 CFU/mL

B3: GN123: lysin obtained from Pseudomonas phage PhiPA3 (SEQ ID NO: 173) (protein)
chain: MTLLKKGDKGDAVKQLQQKLKDLGYTLGVDGNFGNGTDTVVRSFQTKMKLSVDGVVGNGTMSTIDSTLAGIKAWKTSVPFPATNKSRAMAMPTLTEIGRLTNVDPKLLATFCSIESAFDYTAKPYKPDGTVYSSAEGWFQFLDATWDDEVRKHGKQYSFPVDPGRSLRKDPRANGLMGAEFLKGNAAILRPVLGHEPSDTDLYLAHFMGAGGAKQFLMADQNKLAAELFPGPAKANPNIFYKSGNIARTLAEVYAVLDAKVAKHRA
modifications: Pseudomonas phage PhiPA3
resensitization to carbapenems in synergistic combinations ([6]; imipenem (IPM) and meropenem (MEM), carbapenem-resistant isolates): reductions of IPM and MEM MICS to below breakpoint values | lysin MIC, Combination ([6]; in combination with imipenem, isolate PA19): 0.125 µg/mL | lysin MIC, Combination ([6]; in combination with imipenem, isolate PA20): 2 µg/mL | lysin MIC, Combination ([6]; in combination with imipenem, isolate PA21): 1 µg/mL | lysin MIC, Combination ([6]; in combination with imipenem, isolate PA22): 1 µg/mL | lysin MIC, Combination ([6]; in combination with imipenem, isolate PA23): 2 µg/mL | lysin MIC, Combination ([6]; in combination with imipenem, isolate PA24): 2 µg/mL | lysin MIC, Combination ([6]; in combination with imipenem, isolate WC-452): 2 µg/mL | lysin MIC, Combination ([6]; in combination with meropenem, isolate PA19): 0.25 µg/mL | lysin MIC, Combination ([6]; in combination with meropenem, isolate PA20): 1 µg/mL | lysin MIC, Combination ([6]; in combination with meropenem, isolate PA21): 1 µg/mL | lysin MIC, Combination ([6]; in combination with meropenem, isolate PA22): 1 µg/mL | lysin MIC, Combination ([6]; in combination with meropenem, isolate PA23): 1 µg/mL | lysin MIC, Combination ([6]; in combination with meropenem, isolate PA24): 0.5 µg/mL | lysin MIC, Combination ([6]; in combination with meropenem, isolate WC-452): 1 µg/mL | MIC, Alone ([6]; isolate PA19): 8 µg/mL | MIC, Alone ([6]; isolate PA20): 16 µg/mL | MIC, Alone ([6]; isolate PA21): 8 µg/mL | MIC, Alone ([6]; isolate PA22): 16 µg/mL | MIC, Alone ([6]; isolate PA23): 8 µg/mL | MIC, Alone ([6]; isolate PA24): 16 µg/mL | MIC, Alone ([6]; isolate WC-452): 16 µg/mL | FICI ([6]; lysin + imipenem, isolate PA19): 0.03 | FICI ([6]; lysin + imipenem, isolate PA20): 0.188 | FICI ([6]; lysin + imipenem, isolate PA21): 0.141 | FICI ([6]; lysin + imipenem, isolate PA22): 0.188 | FICI ([6]; lysin + imipenem, isolate PA23): 0.281 | FICI ([6]; lysin + imipenem, isolate PA24): 0.188 | FICI ([6]; lysin + imipenem, isolate WC-452): 0.188 | FICI ([6]; lysin + meropenem, isolate PA19): 0.046 | FICI ([6]; lysin + meropenem, isolate PA20): 0.094 | FICI ([6]; lysin + meropenem, isolate PA21): 0.156 | FICI ([6]; lysin + meropenem, isolate PA22): 0.125 | FICI ([6]; lysin + meropenem, isolate PA23): 0.156 | FICI ([6]; lysin + meropenem, isolate PA24): 0.094 | FICI ([6]; lysin + meropenem, isolate WC-452): 0.125 | Fold Increase (MIC) in presence of cations ([1]; 25% CAA + […] CaCl2 (high)): 1 fold | Fold Increase (MIC) in presence of cations ([1]; 25% CAA + […] CaCl2 (low)): 1 fold | Fold Increase (MIC) in presence of cations ([1]; 25% CAA + […] CaCl2 (medium)): 1 fold | Fold Increase (MIC) in presence of cations [1, 7]: 1 fold | Fold Increase (MIC) in presence of cations ([1]; 25% CAA + […] MgCl2 (high)): 1 fold | Fold Increase (MIC) in presence of cations ([1]; 25% CAA + […] MgCl2 (low)): 1 fold | Fold Increase (MIC) in presence of cations ([1]; 25% CAA + […] MgCl2 (medium)): 1 fold | MIC in 25% CAA [1]: 2 µg/mL | fold increase in MIC with SURVANTA ([2]; 0.09% SURVANTA): 1 fold | fold increase in MIC with SURVANTA ([2]; 0.19% SURVANTA): 1 fold | fold increase in MIC with SURVANTA ([2]; 1.56% SURVANTA): 1 fold | fold increase in MIC with SURVANTA ([2]; 3.15% SURVANTA): 2 fold
